Data published in patent US6344321, “Nucleic acid ligands which bind to hepatocyte growth factor/scatter factor (HGF/SF) or its receptor c-met” (Gilead Sciences, Inc.).
Numbering of substitutions follows the chain as printed.

B1: 8-17 28mer (ssRNA)
RNA: GGACGAUGCGGGCGGCUCGAUGUCGUCU
modifications: 2'-F pyrimidines
B2: 8-17 38mer (ssRNA)
RNA: GGGAGGACGAUGCGGGCGGCUCGAUGUCGUCUUAUCCC
modifications: 2'-F pyrimidines
B3: Tr59 (ssRNA)
RNA: GGACAGUUUGUCUUCUAUAGCUCGUCGCCCCCA
modifications: 2'-F pyrimidines
B4: Tr31 (ssRNA)
RNA: GGUGAAUUCCUCUGGCUGAAAAUGACUUGUGCCA
modifications: 2'-F pyrimidines
B5: Tr70 (ssRNA)
RNA: GGUGGGAACCUAUUUAUGUCAUCGUCUGUGCCCA
modifications: 2'-F pyrimidines
B6: Tr15 (ssRNA)
RNA: GGGUUUGAGUGACGAUCGUCUUGUCCCAUGUGCA
modifications: 2'-F pyrimidines
B7: Tr42 (ssRNA)
RNA: GGUGAUAACCUAUUUAUGACGUCGUGGCUCCCCA
modifications: 2'-F pyrimidines
B8: Tr7 (ssRNA)
RNA: GGCGGUGUGAACCUGUUUAUGUCCGCGUACCCCA
modifications: 2'-F pyrimidines
B9: Tr71 (ssRNA)
RNA: GGUCAGAAUGACUUUCAUAGCUCGCUUUCCCCCA
modifications: 2'-F pyrimidines
B10: Tr17 (ssRNA)
RNA: GGGCGGCUCGAUGUCGUCUUAUCCCUUUGCCCCA
modifications: 2'-F pyrimidines
B11: Tr14 (ssRNA)
RNA: GGGAGUUAUAUUUCGUCACCCGUUCCUUUGCCCCA
modifications: 2'-F pyrimidines
B12: Tr45 (ssRNA)
RNA: GGUGGGAACCUAUUUAUGUCAUCUCCGUCCCCA
modifications: 2'-F pyrimidines
B13: Tr4 (ssRNA)
RNA: GGGUGACUCAAAAUGGUGAUCCUCGUUUCCGCCA
modifications: 2'-F pyrimidines
B14: Tr6 (ssRNA)
RNA: GGCGUGAGCCUAUUUAUGUCAUCAUGUCUGUGCA
modifications: 2'-F pyrimidines
B15: Tr5 (ssRNA)
RNA: GGCAGACGACUCGCCCGAAGGACGAUGCGGCA
modifications: 2'-F pyrimidines
B16: Tr44 (ssRNA)
RNA: GGAGUGAUCCUAUUUAUGCCGUCGCUUCUCGCCA
modifications: 2'-F pyrimidines
B17: Tr1 (ssRNA)
RNA: GGAUUGAUUCACUGCAUCCUUGACUCUUCCCCCA
modifications: 2'-F pyrimidines
B18: Tr20 (ssRNA)
RNA: GGUGUGAACCUGUUUAUGCCAUCUCGAGUCCCCA
modifications: 2'-F pyrimidines
B19: Tr28 (ssRNA)
RNA: GGGGUGACCCUUUUUAUGACAUCGCGUCUGGCCA
modifications: 2'-F pyrimidines
B20: Tr48 (ssRNA)
RNA: GGUGAUCACCUGUUUAUGCCAUCGUUCUGGGCCA
modifications: 2'-F pyrimidines
B21: 10-56 (ssRNA)
RNA: GGGAGAUAAGAAUAAACGCUCAACCUUAGGGCUCCCAAAAAUCGGGCCCGUCGGGCCGAUCACUUCGACAGGAGGCUCACAACAGGC
modifications: 2'-F pyrimidines
B22: 10-67 (ssRNA)
RNA: GGGAGAUAAGAAUAAACGCUCAAUCGGGCUUGGAUGUGGACGUGUAUUUCUAGCUGUGUACGCUUCGACAGGAGGCUCACAACAGGC
modifications: 2'-F pyrimidines
B23: 10-35 (ssRNA)
RNA: GGGAGAUAAGAAUAAACGCUCAAAUCCAAAUUCUGGUCAUGAGGCGCUGCAGAUACUGCUGCGUUCGACAGGAGGCUCACAACAGGC
modifications: 2'-F pyrimidines
B24: 10-38 (ssRNA)
RNA: GGGAGAUAAGAAUAAACGCUCAAUCUGCGGACGGUGAGGUUAAGUUGCAACGACUGCUUGGCGUUCGACAGGAGGCUCACAACAGGC
modifications: 2'-F pyrimidines
B25: 10-68 (ssRNA)
RNA: GGGAGAUAAGAAUAAACGCUCAACGCGGGAUUCUCUGAGGACGAGGCACGUGUGGGUAAUUCGUUCGACAGGAGGCUCACAACAGGC
modifications: 2'-F pyrimidines
B26: 10-4 (ssRNA)
RNA: GGGAGAUAAGAAUAAACGCUCAAUUGGGUCGGGACUCGAAAGGAUUUGAUAGGAUACAUGAAUUUCGACAGGAGGCUCACAACAGGC
modifications: 2'-F pyrimidines
B27: 10-16 (ssRNA)
RNA: GGGAGAUAAGAAUAAACGCUCAAUACAGCGUGUUGGUCCCGGACGGGGACUUAUUUCGACAGGAGGCUCACAACAGGC
modifications: 2'-F pyrimidines
B28: 10-1 (ssRNA)
RNA: GGGAGAUAAGAAUAAACGCUCAAAGUGAUGUGAGAGCGUGCCUCUAGUCGGUGUUCGACAGGAGGCUCACAACAGGC
modifications: 2'-F pyrimidines
B29: 10-63 (ssRNA)
RNA: B28 RNA with A24U, A35G, C42U, U45C, A46U, G47A, U48A
modifications: 2'-F pyrimidines
B30: 10-36 (ssRNA)
RNA: GGGAGAUAAGAAUAAACGCUCAACGUUAGCAUCUGAACGAUGCCCAGCCUCAAUUCGACAGGAGGCUCACAACAGGC
modifications: 2'-F pyrimidines
B31: 10-62 (ssRNA)
RNA: GGGAGAUAAGAAUAAACGCUCAAGUUAGACUCAACAUGAGUCCCAGCCUCAAUUCGACAGGAGGCUCACAACAGGC
modifications: 2'-F pyrimidines
B32: 10-18 (ssRNA)
RNA: GGGAGAUAAGAAUAAACGCUCAACGUGAUUCCUACCAUCAGGUACCUAUCUUGUUCGACAGGAGGCUCACAACAGGC
modifications: 2'-F pyrimidines
B33: 8-102 (ssRNA)
RNA: GGGAGGACGAUGCGGCGAGUGCCUGUUUAUGUCAUCGUCCGUCGUCAGACGACUCGCCCGA
modifications: 2'-F pyrimidines
B34: 10-11 (ssRNA)
RNA: GGGAGAUAAGAAUAAACGCUCAACGCCUGGACCGUUUGUUUAUCCCCGUAGUCUUCGACAGGAGGCUCACAACAGGC
modifications: 2'-F pyrimidines
B35: 10-48 (ssRNA)
RNA: GGGAGAUAAGAAUAAACGCUCAAGAGUUCCCUGUUGACUCGCUCUCCUGACCCUUCGACAGGAGGCUCACAACAGGC
modifications: 2'-F pyrimidines
B36: 10-31 (ssRNA)
RNA: B35 RNA with A25G, C31U, U32G, G33A, U39C, G41U, C42G, C47U, U48A
modifications: 2'-F pyrimidines
B37: 10-57 (ssRNA)
RNA: GGGAGAUAAGAAUAAACGCUCAACGAGCCUCCUACCGUUUAGGUACCAUCUUGUUCGACAGGAGGCUCACAACAGGC
modifications: 2'-F pyrimidines
B38: 10-13 (ssRNA)
RNA: GGGAGAUAAGAAUAAACGCUCAAGAUCUGUUGGCGUGUCUACCCGACCCUCCUUUCGACAGGAGGCUCACAACAGGC
modifications: 2'-F pyrimidines
B39: 10-49 (ssRNA)
RNA: GGGAGAUAAGAAUAAACGCUCAACCCGACCUCCUGUAACUGGUUGAGGCACUAUUCGACAGGAGGCUCACAACAGGC
modifications: 2'-F pyrimidines
B40: 10-27 (ssRNA)
RNA: GGGAGAUAAGAAUAAACGCUCAAUUAGCCUCCGACCGUAAGGUCCUUUUCUUGUUCGACAGGAGGCUCACAACAGGC
modifications: 2'-F pyrimidines
B41: 10-53 (ssRNA)
RNA: GGGAGAUAAGAAUAAACGCUCAAGGCCUCCAACCGCUAAAGGUUCCAUUCUUGUUCGACAGGAGGCUCACAACAGGC
modifications: 2'-F pyrimidines
B42: 8-222 (ssRNA)
RNA: GGGAGGACGAUGCGGUGUGAACCUAUUUAUGCCAUUAUGUCUGUGCAGACGACUCGCCCGA
modifications: 2'-F pyrimidines
B43: 10-29 (ssRNA)
RNA: GGGAGAUAAGAAUAAACGCUCAAUCUGUUGGCGUCGUUCUCCUGACCCUCCUCUUCGACAGGAGGCUCACAACAGGC
modifications: 2'-F pyrimidines
B44: 10-58 (ssRNA)
RNA: GGGAGAUAAGAAUAAACGCUCAAGGGGAGGCCCUUCAGCCGUCUCCUUGACCCUUCGACAGGAGGCUCACAACAGGC
modifications: 2'-F pyrimidines

Biological target: T1, HGF (hepatocyte growth factor/scatter factor) (UniProt P14210;P14210 P14210:32-494,P14210:495-728)
T1 sequence (P14210 32-494, chain 1 of 2): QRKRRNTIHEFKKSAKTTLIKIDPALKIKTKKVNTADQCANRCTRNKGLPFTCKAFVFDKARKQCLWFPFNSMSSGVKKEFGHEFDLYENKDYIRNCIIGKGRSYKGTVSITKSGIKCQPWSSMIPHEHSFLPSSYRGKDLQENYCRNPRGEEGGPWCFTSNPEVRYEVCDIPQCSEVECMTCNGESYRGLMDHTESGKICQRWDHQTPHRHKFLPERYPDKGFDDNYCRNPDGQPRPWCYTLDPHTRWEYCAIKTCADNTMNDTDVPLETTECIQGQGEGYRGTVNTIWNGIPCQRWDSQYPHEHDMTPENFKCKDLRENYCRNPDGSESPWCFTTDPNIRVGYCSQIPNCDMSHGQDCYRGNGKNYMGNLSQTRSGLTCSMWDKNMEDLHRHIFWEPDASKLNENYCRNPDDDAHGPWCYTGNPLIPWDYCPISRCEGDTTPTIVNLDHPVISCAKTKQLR
T1 sequence (P14210 495-728, chain 2 of 2): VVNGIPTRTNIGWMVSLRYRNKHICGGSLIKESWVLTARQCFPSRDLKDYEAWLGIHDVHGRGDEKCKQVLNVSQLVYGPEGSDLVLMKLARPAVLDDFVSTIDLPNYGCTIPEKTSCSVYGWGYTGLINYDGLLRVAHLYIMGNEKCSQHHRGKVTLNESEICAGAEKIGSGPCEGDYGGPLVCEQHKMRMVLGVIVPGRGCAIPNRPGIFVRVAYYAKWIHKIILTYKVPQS
Experiment: filter; no significant binding retained
Details: tags: R&D Systems
Method: (§1) In binding reactions, RNA concentrations were kept as low as possible—between 1 and 20 pM—to ensure equilibrium in conditions of protein excess. Oligonucleotides were incubated for 15 minutes at 37° C. with varying amounts of the protein in 43 µl of the binding buffer. Thirty-two microliters of each binding mixture placed on pre-wet 0.45 µm nitrocellulose filters under suction. Each well was immediately washed with 0.5 ml binding buffer. The amount of radioactivity retained on the filters was quantitated by imaging. The radioactivity that bound to filters in the absence of protein was used for background correction. The percentage of input oligonucleotide retained on each filter spot was plotted against the corresponding log protein concentration. The nonlinear least square method was used to obtain the dissociation constant (K_d; reference Jellinek, Lynott et al. 1993, Proc. Natl. Acad. Sci. USA. 90:11227–31).

**Q.** Does B1 bind?
**A.** no binding

**Q.** Does B2 bind?
**A.** no binding

Biological target: T1, HGF (hepatocyte growth factor/scatter …)
Experiment: filter; one or two 5' G
Details: tags: R&D Systems
Method: as §1

**Q.** Which Kd does the source give for B3 here?
**A.** 7.2 nM

**Q.** For B4, which Kd is on record?
**A.** 9.2 nM

**Q.** Which Kd does the source give for B5 here?
**A.** 2.4 nM

**Q.** With B6 as the binder, how does the Kd read?
**A.** 8.8 nM

**Q.** With B7 as the binder, how does the Kd read?
**A.** 6.1 nM

**Q.** B8 was tested. Which Kd did it give?
**A.** 0.67 nM

**Q.** With B9 as the binder, how does the Kd read?
**A.** 7.7 nM

**Q.** B10 was tested. Which Kd did it give?
**A.** 3 nM

**Q.** How did the Kd turn out when B11 was run?
**A.** 2.2 nM

**Q.** With B12 as the binder, how does the Kd read?
**A.** 1.7 nM

**Q.** For B13, which Kd is on record?
**A.** 1.4 nM

**Q.** Which Kd does the source give for B14 here?
**A.** 9 nM

**Q.** For B15, which Kd is on record?
**A.** 28 nM

**Q.** How did the Kd turn out when B16 was run?
**A.** 6.5 nM

**Q.** B17 was tested. Which Kd did it give?
**A.** 7.3 nM

**Q.** With B18 as the binder, how does the Kd read?
**A.** 3.4 nM

**Q.** B19 was tested. Which Kd did it give?
**A.** 4 nM

**Q.** Which Kd does the source give for B20 here?
**A.** 1.8 nM

Biological target: T1, HGF (hepatocyte growth factor/scatter …)
Experiment: filter; 40N8 hitchhiker
Details: tags: R&D Systems
Method: as §1

**Q.** B21 was tested. Which Kd did it give?
**A.** 0.28 nM

**Q.** Which Kd does the source give for B22 here?
**A.** 0.64 nM

**Q.** For B23, which Kd is on record?
**A.** 2.33 nM

**Q.** For B24, which Kd is on record?
**A.** 7.38 nM

**Q.** B25 was tested. Which Kd did it give?
**A.** 1 nM

**Q.** Which Kd does the source give for B26 here?
**A.** 0.61 nM

Biological target: T1, HGF (hepatocyte growth factor/scatter …)
Experiment: filter; HBSMC, 37C
Details: tags: R&D Systems
Method: as §1

**Q.** Which Kd does the source give for B27 here?
**A.** 0.21 nM

**Q.** Which Kd does the source give for B28 here?
**A.** 0.094 nM

**Q.** Which Kd does the source give for B29 here?
**A.** 0.19 nM

**Q.** With B30 as the binder, how does the Kd read?
**A.** 1.94 nM

**Q.** With B31 as the binder, how does the Kd read?
**A.** 0.44 nM

**Q.** B32 was tested. Which Kd did it give?
**A.** 0.3 nM

**Q.** Which Kd does the source give for B33 here?
**A.** 0.06 nM

**Q.** Which Kd does the source give for B34 here?
**A.** 0.61 nM

**Q.** Which Kd does the source give for B35 here?
**A.** 0.31 nM

**Q.** Which Kd does the source give for B36 here?
**A.** 1.9 nM

**Q.** How did the Kd turn out when B37 was run?
**A.** 0.14 nM

**Q.** B38 was tested. Which Kd did it give?
**A.** 0.72 nM

**Q.** With B39 as the binder, how does the Kd read?
**A.** 0.24 nM

**Q.** For B40, which Kd is on record?
**A.** 0.83 nM

**Q.** B41 was tested. Which Kd did it give?
**A.** 0.31 nM

**Q.** For B42, which Kd is on record?
**A.** 0.13 nM

**Q.** B43 was tested. Which Kd did it give?
**A.** 1.75 nM

**Q.** For B44, which Kd is on record?
**A.** 0.44 nM
